Substitutions are numbered along the chain they refer to. Several values for one entry are separate records, joined by “and”; a condition that tells them apart may be missing. Equal entries are not always repeated.
What was measured:
[1] = target: T1, TIM3-hFc (human TIM-3 Fc fusion, 货号 TM3-H5258, 北京百普赛斯生物科技有限公司) (human, UniProt Q8TDQ0 22-200); assay: ELISA on TIM3-hFc captured by anti-hFc
T1 construct: also called 人TIM-3; 人TIM-3抗原; not shown: human Fc (hFc) of the bought fusion

[2] = target: human TIM-3 on human blood cells (PBMC / NK cells / activated T cells) (human, UniProt Q8TDQ0 22-301); assay: cell-based or functional assay
[3] = target: TIM3-hFc (human TIM-3 Fc fusion, 货号 TM3-H5258, 北京百普赛斯生物科技有限公司) (human) (UniProt Q8TDQ0); assay: ELISA, hybridoma supernatant on TIM3-hFc captured by anti-hFc
[4] = target: T2, 人Tim-3 (antigen used as analyte in Biacore) (human, UniProt Q8TDQ0 22-200); assay: SPR, Biacore T200, antibody captured by Protein A on CM5, TIM-3 as analyte, 1:1 Langmuir
T2 construct: Soluble antigen flowed at 0-30 nM over antibody captured by Protein A; also called 抗原TIM-3

B1: 人源化ab8抗体 (humanized anti-TIM-3 antibody ab8) (antibody, IgG4, V domains shown)
VH: EVQLVESGGGLVKPGGSLRLSCAASGFTFSDYYMAWVRQAPGKGLEWVANINYDGSNTYYLDSLKSRFTISRDNAKNSLYLQMNSLRAEDTAVYYCARGLYYYGGNYFAYWGQGTLVTVSS
VL: DIQMTQSPSSLSASVGDRVTITCHASQGISSNIGWLQQKPGKAFKGLIYQGSNLEDGVPSRFSGSGSGTDYTLTISSLQPEDFATYYCVQFAQFPPTFGQGTKLEIKR
notes: Humanized mab5; human kappa / IgG4
EC50 [1]: 0.131 nM

B2: 人源化ab7抗体 (humanized anti-TIM-3 antibody ab7) (antibody, human IgG4 S228P, kappa, V domains shown)
VH: B1 VH
VL: B1 VL with Y71F
notes: as for B1
EC50 [1]: 0.154 nM

B3: 人源化ab6抗体 (humanized anti-TIM-3 antibody ab6) (antibody, human IgG4 S228P, kappa, V domains shown)
VH: B1 VH
VL: B1 VL with T69A
notes: as for B1
EC50 [1]: 0.159 nM | killing of tumour cells by PBMC/NK cells relative to the reference antibody (fold) [2]: ≥ 2 倍 (fold)

B4: mab5 (mouse hybridoma clone 6F3, murine anti-human TIM-3 monoclonal antibody) (antibody, V domains shown)
VH: EVKLVESEGGLVQPGGSMKLSCTASGFTFSDYYMAWVRQVPEKGLEWVANINYDGSNTYYLDSLKSRFIISRDNVKNILYLQMSSLKSEDTATYYCARGLYYYGGNYFAYWGQGTLVTVSA
VL: DILMTQSPSSMSVSLGDTVTITCHASQGISSNIGWLQQKPGKSFKGLIYQGSNLEDGVPSRFSGSGSGADYSLTISSLEYEDFADYYCVQFAQFPPTFGAGTKLELK
ELISA 数值(OD450) [3]: 1.73 OD450

B5: mab5-c (chimeric anti-human TIM-3 antibody, human IgG4-κ) (antibody, V domains shown)
VH: B4 VH
VL: DILMTQSPSSMSVSLGDTVTITCHASQGISSNIGWLQQKPGKSFKGLIYQGSNLEDGVPSRFSGSGSGADYSLTISSLEYEDFADYYCVQFAQFPPTFGAGTKLELKR
notes: Mouse mab5 variable regions on human IgG4 / kappa constant regions; expressed in HEK293E; also called 嵌合抗体mab5-c
EC50 [1]: 0.107 nM and 0.06 nM | Kd [4]: 1.76 nM | koff [4]: 0.00244 s⁻¹ | kon [4]: 1.39e+06 M⁻¹ s⁻¹ | killing activity relative to the reference antibody ABTIM3 (fold) [2]: 2.8 倍 (fold)

B6: 对照抗体 ABTIM3 (reference anti-TIM-3 antibody, sequence from WO2015117002A1) (antibody, V domains shown)
VH: QVQLQQPGAELVKPGASVKMSCKASGYTFTSYNMHWIKQTPGQGLEWIGDIYPGNGDTSYNQKFKGKATLTADKSSSTVYMQLSSLTSEDSAVYYCARVGGAFPMDYWGQGTSVTVSS
VL: DIVLTQSPASLAVSLGQRATISCRASESVEYYGTSLMQWYQQKPGQPPKLLIYAASNVESGVPARFSGSGSGTDFSLNIHPVEEDDIAIYFCQQSRKDPSTFGGGTKLEIK
EC50 [1]: 0.245 nM and 0.13 nM

Source: patent publication CN108948193A (SHANGHAI JIANXIN BIOPHARMACEUTICALS LLC, dated 2018)
